A short description of the data set: protein stability index of a GFP-peptide fusion (GPS, HEK-293T) (PSI 1-6); higher = more stable.
Where [1] appears, read: treatment: DMSO, c terminus: a fixed tail appended.
Where [2] appears, read: treatment: MLN4924 1 uM, 8 h, c terminus: a fixed tail appended.

± gives the standard deviation.
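Also: 24-mer peptide tiles fused after GFP, lentivirally expressed, FACS-sorted into six equal bins by GFP/DsRed ratio, decoded by Illumina sequencing, PSI is the read-weighted mean bin number.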

As to CPKYKFISCPTCRRETVLFTDYGL [RNF208], the protein stability index reads like this: under setting [1], 2.28 ± 0.25; under setting [2], 2.25 ± 0.21.
The like results for CPLLLGSVMAIERCIGVTKPIFHS [PTGFR] were, in that order, 2.78 ± 0.87 and 2.77 ± 0.68.
For CQQEQLFQTRQEMTSMSAELKMRA [LRRC45], the protein stability index reads like this: under setting [1], 3.03 ± 0.42; under setting [2], 3.1 ± 0.21.
CWNTSYCSIKCQQEHWHAEHKRTC [ZMYND11] registered a protein stability index under setting [1] of 2.31 ± 0.39 and a protein stability index under setting [2] of 2.32 ± 0.22.
With DALLGIDDLETMPDDLLTTLDDTC [ATF4], the protein stability index came out at 5.17 ± 0.16 under setting [1] and 5.05 ± 0.34 under setting [2].
Turning to DDGKLGATGPMGMRGFKGDRGPKG [SCARA5], the protein stability index reads like this: under setting [1], 5.02 ± 0.36; under setting [2], 5.07 ± 0.13.
With DDIEEKTPISNEVEMESEEQIAER [KMT2E], the protein stability index runs as follows: under setting [1], 5.8 ± 0.16; under setting [2], 5.66 ± 0.26.
Take DDWEDDYDYPEEEQLSGAGYRVSA [EID1]: the protein stability index by setting is: under setting [1], 4.9 ± 0.29; under setting [2], 5.04 ± 0.21.
Regarding DEAQGACLQQKQVVAEAQTRVSQL [LRRC45], the protein stability index by setting is: under setting [1], 5.23 ± 0.12; under setting [2], 5.09 ± 0.31.
Turning to DEDSEPEREVRAKNGRVDSEDRRS [USP39], the protein stability index is 5.62 ± 0.33 under setting [1] and 5.517 ± 0.016 under setting [2].
The like results for DEGDEPMPIPEDLSTTSGGQQSSK [IKZF1] were, in that order, 5.42 ± 0.65 and 5.56 ± 0.28.
For DEGGITKQPPVTQSKTASDKSPST [FBF1], the protein stability index was 5.44 ± 0.21 under setting [1] and 5.56 ± 0.19 under setting [2].
With DELVGLPFSSHTYSQASELPTDAV [FBXO34], the protein stability index reads like this: under setting [1], 4.95 ± 0.18; under setting [2], 4.81 ± 0.081.
For DGSVVRDFEHRPKAPVVECSITGD [WDR88] the same measures were 5.4 ± 0.21 and 5.32 ± 0.16.
DHLGWVARGTGSGEDSSTSSSTPL [RTN2] gave a protein stability index under setting [1] of 4.73 ± 0.18 and a protein stability index under setting [2] of 4.54 ± 0.25.
Turning to DHTSEAVRNLFGLDPSSGAIHVLG [PCDHGC5], the protein stability index runs as follows: under setting [1], 3.16 ± 0.24; under setting [2], 3.09 ± 0.19.
Regarding DILWEHLEQMIKENQEKTEDQYEE [ETS2], the protein stability index under setting [1] worked out at 5.02 ± 0.21 and the protein stability index under setting [2] was found to be 5.22 ± 0.2.
As to DISPPIFRRGEKLRVISDEGGWWK [SLA], the protein stability index by setting is: under setting [1], 3.02 ± 0.71; under setting [2], 2.87 ± 0.42.
The like results for DLASAAAKQIMEETYKMEFMYSGV [INTS4] were, in that order, 2.58 ± 0.52 and 2.5 ± 0.16.
For DLFEKKGYTFDYAYDWVGRPIPTP [CSNK1G1] the same measures were 2.26 ± 0.58 and 2.37 ± 0.29.
DLLNNKLVTLPVSFAQLKNLKWLD [LRRC59]: the protein stability index is 2.24 ± 0.23 under setting [1] and 2.17 ± 0.31 under setting [2].
Take DMRNSATFKSFEDRVGTIKSKVVG [TPD52L2]: the protein stability index is, setting by setting: under setting [1], 3.24 ± 0.16; under setting [2], 3.61 ± 0.23.
Take DNPSVLSGPMQAALQAAAHASVDI [SMG5]: the protein stability index by setting is: under setting [1], 4.05 ± 0.14; under setting [2], 4.29 ± 0.26.
The like results for DPACYEFLWGPRALVETSYVKVLH [MAGEA3] were, in that order, 2.12 ± 0.2 and 2.12 ± 0.36.
For DPIVRPLWWIAPGDETAHRIDSQF [MYORG], the protein stability index under setting [1] was found to be 3.23 ± 0.18 and the protein stability index under setting [2] was found to be 3.24 ± 0.27.
On to DPNKMAFGCEECGKKYNTMLGYKR [PLAGL1], for which the protein stability index amounted to 3.07 ± 0.49 under setting [1] and 3.46 ± 0.64 under setting [2].
The like results for DPVLAKVAGDCLDEKQCKQCANKV [LRRC59] were, in that order, 4.99 ± 0.42 and 5.07 ± 0.09.
The like results for DQEQGSSFQMSEGSEAAVIPLDLG [FAM189A2] were, in that order, 5.34 ± 0.35 and 5.48 ± 0.17.
In the case of DQSDEGSSSQKEESPSTLQVLPDS [MAGEA10], the protein stability index amounted to 5.66 ± 0.21 under setting [1] and 5.56 ± 0.16 under setting [2].
The like results for DRKARKPLVEKKRRARINESLQEL [HES6] were, in that order, 4.37 ± 0.22 and 4.71 ± 0.13.
For the sequence DRSTEPDRLQVFHKRAIMPYGVYK [ATE1], the protein stability index is, setting by setting: under setting [1], 3.44 ± 0.24; under setting [2], 3.47 ± 0.26.
The sequence DSCVLTGPDDSLWDKHACPAYVGP [TRIB3] displayed a protein stability index under setting [1] of 3.65 ± 0.33 and a protein stability index under setting [2] of 3.62 ± 0.19.
On to DSGASAITRESHTHRDRPSQQQPL [CSNK1G1], for which the protein stability index reads like this: under setting [1], 5.09 ± 0.15; under setting [2], 5.15 ± 0.17.
For the sequence DSLTSLQWLQEFSILNAKAPALPP [FOXJ1], the protein stability index reads like this: under setting [1], 2.26 ± 0.043; under setting [2], 2.19 ± 0.075.
DSSEEKHLEEPGETQNAFLNERKQ [CHGB]: the protein stability index came to 5.5 ± 0.41 under setting [1] and 5.41 ± 0.36 under setting [2].
Turning to DSVSVNDIDLSLYIPRDVDETGIT [ZC3H15], the protein stability index worked out at 3.76 ± 0.15 under setting [1] and 4.36 ± 0.11 under setting [2].
As to DTDKWIQKAPMTTVRGLHCMCTVG [KLHL13], the protein stability index is 2.32 ± 0.25 under setting [1] and 2.81 ± 0.35 under setting [2].
The like results for DTYDSVYLHPNSYSCACLASGSVL [HDAC6] were, in that order, 2.21 ± 0.15 and 2.3 ± 0.25.
For the sequence DVAGNLDYKALSYVITHGEEKEE [MYL5], the protein stability index is, setting by setting: (treatment: DMSO, c terminus: native) 2.62 ± 0.7; (treatment: MLN4924 1 uM, 8 h, c terminus: native) 3.56 ± 1.1.
With DVALVLTVLLEEETLEASVGPRET [TOR1AIP2], the protein stability index under setting [1] was found to be 2.49 ± 0.51 and the protein stability index under setting [2] is 2.27 ± 0.31.
Consider DYIRRYLPVLRGFPAKYIYDPWNA [CRY1], for which the protein stability index amounted to 2.53 ± 0.5 under setting [1] and 2.16 ± 0.2 under setting [2].
For the sequence DYLDLDKMSLYSEADSGYGSYGGF [TRIM9], the protein stability index under setting [1] came to 2.46 ± 0.51 and the protein stability index under setting [2] was found to be 2.77 ± 0.24.
In the case of EAAEGKSLGSALKPGEGRSALFAG [TRIM29], the protein stability index turned out to be 4.87 ± 0.17 under setting [1] and 4.76 ± 0.19 under setting [2].
Regarding EAANLLIPAVGSSLSEALDLIESD [MYBL2], the protein stability index under setting [1] stood at 4.81 ± 0.14 and the protein stability index under setting [2] was determined as 4.72 ± 0.2.
Take EAAPRQCIELYFDEKYSIEPSWEC [NETO1]: the protein stability index is 2.48 ± 0.2 under setting [1] and 2.73 ± 0.57 under setting [2].
Regarding EALAATWEQPWASEVFGPERMPPS [PXN], the protein stability index under setting [1] was determined as 3.33 ± 0.27 and the protein stability index under setting [2] was 3.5 ± 0.47.
EALGLEAEGAVPETQTLTGWSKGF [RHOBTB1]: the protein stability index turned out to be 3.79 ± 0.098 under setting [1] and 4.05 ± 0.27 under setting [2].
As to EALKHPWICQRSTVASMMHRQETV [CAMK2D], the protein stability index is 2.81 ± 0.28 under setting [1] and 2.73 ± 0.25 under setting [2].
Take EALVRTVLRAGDREDITEPAICAL [CTNNB1]: the protein stability index under setting [1] was 3.45 ± 0.29 and the protein stability index under setting [2] was 3.6 ± 0.51.
Take EANNLAAAASAKDIYYNNMEEVCG [ATL3]: the protein stability index under setting [1] worked out at 4.69 ± 0.26 and the protein stability index under setting [2] worked out at 4.68 ± 0.18.
Take EAVLHCHQMGVVHRDLKPENLLLA [CAMK2A]: the protein stability index stood at 2.64 ± 0.27 under setting [1] and 2.58 ± 0.38 under setting [2].
Take ECGKAFSQSSYLSQHRRIHSGEKP [ZNF232]: the protein stability index amounted to 3.57 ± 0.28 under setting [1] and 3.61 ± 0.15 under setting [2].
Take ECYDPRTQQWTAICPLKERRFGAV [GAN]: the protein stability index came to 2.69 ± 0.18 under setting [1] and 2.62 ± 0.3 under setting [2].

Values taken from the supplement of paper PMC10567573.
